# From FireProtDB (doi:10.1021/bi00252a018)
# B1: Subtilisin inhibitor, P01006 (parent)
# chain: MRNTGAGPSPSVSRPPPSAAPLSGAALAAPGDAPSALYAPSALVLTVGKGVSATTAAPERAVTLTCAPGPSGTHPAAGSACADLAAVGGDLNALTRGEDVMCPMVYDPVLLTVDGVWQGKRVSYERVFSNECEMNAHGSSVFAF
# Variants of: B1
# Conditions: Streptomyces albogriseolus; pH 2.3; Thermal; DSC; glycine 25 mM; reversible: yes (70-85%); structure 3SSI; whole UniProt chain shown
row,Variant,Tm [°C]
1,D114C,48

# Same assay, conditions: Streptomyces albogriseolus; pH 2.4; Thermal; DSC; glycine 25 mM; reversible: yes (70-85%); structure 3SSI; whole UniProt chain shown
row,Variant,Tm [°C]
1,D114C,50

# Same assay, conditions: Streptomyces albogriseolus; pH 2.5; Thermal; DSC; glycine 25 mM; reversible: yes (70-85%); structure 3SSI; whole UniProt chain shown
row,Variant,Tm [°C]
1,D114C,52.5

# Same assay, conditions: Streptomyces albogriseolus; pH 2.56; Thermal; DSC; glycine 25 mM; reversible: yes (70-85%); structure 3SSI; whole UniProt chain shown
row,Variant,Tm [°C]
1,D114C,53.2

# Same assay, conditions: Streptomyces albogriseolus; pH 2.59; Thermal; DSC; glycine 25 mM; reversible: yes (70-85%); structure 3SSI; whole UniProt chain shown
row,Variant,Tm [°C]
1,D114C,54.2

# Same assay, conditions: Streptomyces albogriseolus; pH 2.68; Thermal; DSC; glycine 25 mM; reversible: yes (70-85%); structure 3SSI; whole UniProt chain shown
row,Variant,Tm [°C]
1,D114C,56.2

# Same assay, conditions: Streptomyces albogriseolus; pH 2.8; Thermal; DSC; glycine 25 mM; reversible: yes (70-85%); structure 3SSI; whole UniProt chain shown
row,Variant,Tm [°C]
1,D114C,58.8

# Same assay, conditions: Streptomyces albogriseolus; pH 2.88; Thermal; DSC; glycine 25 mM; reversible: yes (70-85%); structure 3SSI; whole UniProt chain shown
row,Variant,Tm [°C]
1,D114C,59.9

# Same assay, conditions: Streptomyces albogriseolus; pH 2.89; Thermal; DSC; glycine 25 mM; reversible: yes (70-85%); structure 3SSI; whole UniProt chain shown
row,Variant,Tm [°C]
1,D114C,60.5

# Same assay, conditions: Streptomyces albogriseolus; pH 2.94; Thermal; DSC; glycine 25 mM; reversible: yes (70-85%); structure 3SSI; whole UniProt chain shown
Variant,Tm [°C],"change of melting temperature, mutant - wild type (higher = more stable) [°C]"
D114C,61.2,17.2
D114N,44.8,0.88

# Same assay, conditions: Streptomyces albogriseolus; pH 3.04; Thermal; DSC; glycine 25 mM; reversible: yes (70-85%); structure 3SSI; whole UniProt chain shown
Variant,Tm [°C],"change of melting temperature, mutant - wild type (higher = more stable) [°C]"
D114C,63.2,15.6
D114N,46.3,-1.29

# Same assay, conditions: Streptomyces albogriseolus; pH 3.07; Thermal; DSC; glycine 25 mM; reversible: yes (70-85%); structure 3SSI; whole UniProt chain shown
Variant,Tm [°C],"change of melting temperature, mutant - wild type (higher = more stable) [°C]"
D114C,64.5,15.7
D114N,47.3,-1.43

# Same assay, conditions: Streptomyces albogriseolus; pH 3.16; Thermal; DSC; glycine 25 mM; reversible: yes (70-85%); structure 3SSI; whole UniProt chain shown
Variant,Tm [°C],"change of melting temperature, mutant - wild type (higher = more stable) [°C]"
D114C,66.5,14.3
D114N,49.9,-2.28

# Same assay, conditions: Streptomyces albogriseolus; pH 3.25; Thermal; DSC; glycine 25 mM; reversible: yes (70-85%); structure 3SSI; whole UniProt chain shown
Variant,Tm [°C],"change of melting temperature, mutant - wild type (higher = more stable) [°C]"
D114C,68.8,13.1

# Same assay, conditions: Streptomyces albogriseolus; pH 7; Thermal; DSC; phosphate 25 mM; reversible: yes (70-85%); structure 3SSI; whole UniProt chain shown
Variant,Tm [°C],"change of melting temperature, mutant - wild type (higher = more stable) [°C]"
D114C,95.3,13.3
D114N,83.1,1.07

# Same assay, conditions: Streptomyces albogriseolus; pH 9.5; Thermal; DSC; glycine 25 mM; reversible: yes (70-85%); structure 3SSI; whole UniProt chain shown
Variant,Tm [°C],"change of melting temperature, mutant - wild type (higher = more stable) [°C]"
D114C,95,14.3
D114N,82.6,1.88

# Same assay, conditions: Streptomyces albogriseolus; pH 9.75; Thermal; DSC; glycine 25 mM; reversible: yes (70-85%); structure 3SSI; whole UniProt chain shown
Variant,Tm [°C],"change of melting temperature, mutant - wild type (higher = more stable) [°C]"
D114C,94.8,14.6
D114N,82.3,2.06

# Same assay, conditions: Streptomyces albogriseolus; pH 2.9; Thermal; DSC; glycine 25 mM; reversible: yes (70-85%); structure 3SSI; whole UniProt chain shown
Variant,Tm [°C],"change of melting temperature, mutant - wild type (higher = more stable) [°C]"
D114N,42.3,-2.17

# Same assay, conditions: Streptomyces albogriseolus; pH 2.98; Thermal; DSC; glycine 25 mM; reversible: yes (70-85%); structure 3SSI; whole UniProt chain shown
Variant,Tm [°C],"change of melting temperature, mutant - wild type (higher = more stable) [°C]"
D114N,45.1,-0.2

# Same assay, conditions: Streptomyces albogriseolus; pH 3.15; Thermal; DSC; glycine 25 mM; reversible: yes (70-85%); structure 3SSI; whole UniProt chain shown
Variant,Tm [°C],"change of melting temperature, mutant - wild type (higher = more stable) [°C]"
D114N,50.2,-1.03

# Same assay, conditions: Streptomyces albogriseolus; pH 3.19; Thermal; DSC; glycine 25 mM; reversible: yes (70-85%); structure 3SSI; whole UniProt chain shown
Variant,Tm [°C],"change of melting temperature, mutant - wild type (higher = more stable) [°C]"
D114N,51.4,-1.95

# Same assay, conditions: Streptomyces albogriseolus; pH 3.2; Thermal; DSC; glycine 25 mM; reversible: yes (70-85%); structure 3SSI; whole UniProt chain shown
Variant,Tm [°C],"change of melting temperature, mutant - wild type (higher = more stable) [°C]"
D114N,51.3,-2.3

# Same assay, conditions: Streptomyces albogriseolus; pH 3.21; Thermal; DSC; glycine 25 mM; reversible: yes (70-85%); structure 3SSI; whole UniProt chain shown
Variant,Tm [°C],"change of melting temperature, mutant - wild type (higher = more stable) [°C]"
D114N,51.3,-2.07
